# Reference: publication PMC2483945, “Structure of the Head of the Bartonella Adhesin BadA” (PLoS Pathogens, 2008)
# Assays:
# [1] = target: BadA head fragment after chymotrypsin treatment (protease-resistant fragment of approx. 14 kDa) (Bartonella henselae); assay: not stated; fragments of approx. 14 kDa after trypsin or chymotrypsin treatment (10 min, room temperature, 20 mM MOPS/KOH pH 7.2, 150 mM NaCl); how the trimers were shown is not told
# [2] = target: BadA head fragment after trypsin treatment (protease-resistant fragment of approx. 14 kDa) (Bartonella henselae); assay: as above
# [3] = target: the molecule itself; assay: SEC-MALS; calibrated analytical S200 column (GE Healthcare) coupled to a MiniDAWN Tristar static light scattering detector; data not shown
molecule,measurement,setting,value
BadA head fragment after chymotrypsin treatment (protease-resistant fragment of approx. 14 kDa) (domain or fragment),stoichiometry N,[1],3
BadA head fragment after trypsin treatment (protease-resistant fragment of approx. 14 kDa) (domain or fragment),stoichiometry N,[2],3
"BadA head fragment (Trp-ring domain, GIN domain, neck and first stalk segment; residues 375 to 536) (domain or fragment, Residues 385-498 are resolved in the crystal; also called BadA construct; BadA fragment; source: recombinantly expressed, purified as described [11]) KALRGMISEKGGWNLTVNNDNNTVVSSGGALDLSSGSKNLKIVKDGKKNNVTFDVARDLTLKSIKLDGVTLNETGLFIANGPQITASGINAGSQKITGVAEGTDANDAVNFGQLKKIETEVKEQVAASGFVKQDSDTKYLTIGKDTDGDTINIANNKSDKRT",stoichiometry N,[3],3
